Measured values reported in patent publication US9433687B2, “Anti-Notch3 antibodies and antibody-drug conjugates” (Pfizer Inc., priority 2012, dated 2016).

T1: human Notch2 NRR-Fc (Homo sapiens, UniProt Q04721)
T1 construct: Expression constructs encoding human Notch1 and Notch2 NRR regions, fused with human IgG1 Fc fragments; made in house; host or cells: CHO-PACE cells
T1 sequence (Q04721 1425-1677 limits assumed): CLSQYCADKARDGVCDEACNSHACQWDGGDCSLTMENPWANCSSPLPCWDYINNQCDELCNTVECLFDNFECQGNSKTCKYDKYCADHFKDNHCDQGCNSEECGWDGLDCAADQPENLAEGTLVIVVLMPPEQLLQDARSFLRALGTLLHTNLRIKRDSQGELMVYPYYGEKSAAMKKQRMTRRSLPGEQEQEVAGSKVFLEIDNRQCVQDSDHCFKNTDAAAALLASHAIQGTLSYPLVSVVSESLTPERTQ

T2: human Notch1 NRR-Fc (Homo sapiens, UniProt P46531)
T2 construct: Expression constructs encoding human Notch1 and Notch2 NRR regions, fused with human IgG1 Fc fragments; made in house; host or cells: CHO-PACE cells
T2 sequence (P46531 1446-1733 limits assumed): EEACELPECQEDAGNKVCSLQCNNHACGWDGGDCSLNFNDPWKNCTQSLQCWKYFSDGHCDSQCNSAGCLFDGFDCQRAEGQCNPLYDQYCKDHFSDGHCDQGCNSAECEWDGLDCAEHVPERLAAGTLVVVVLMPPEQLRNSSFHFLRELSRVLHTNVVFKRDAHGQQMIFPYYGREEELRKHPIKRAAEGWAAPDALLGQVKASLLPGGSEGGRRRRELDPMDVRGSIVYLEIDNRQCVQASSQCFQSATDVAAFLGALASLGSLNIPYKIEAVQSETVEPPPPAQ

T3: human Notch3 NRR recombinant protein (Homo sapiens, UniProt Q9UM47)
T3 construct: made in house
T3 sequence (Q9UM47 with tags, fused parts or gaps): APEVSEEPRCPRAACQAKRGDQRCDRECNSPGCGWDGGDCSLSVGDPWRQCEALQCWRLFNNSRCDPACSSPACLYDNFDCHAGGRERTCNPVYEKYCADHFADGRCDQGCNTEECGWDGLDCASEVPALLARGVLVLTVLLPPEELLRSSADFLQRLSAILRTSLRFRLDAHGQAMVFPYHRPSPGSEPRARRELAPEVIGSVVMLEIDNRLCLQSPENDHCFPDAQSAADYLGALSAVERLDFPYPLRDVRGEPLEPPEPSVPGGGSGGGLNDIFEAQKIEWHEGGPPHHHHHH

B1: ch75-mc0131 (conjugate)
VH: QVKLLQSGAALVKPGASVKMSCKASGYAFTDYWVTWVKQSHGKSLEWIGEISPNSGGTNFNEKFKGKATLTVDKSTSTAYMELSRLTSEDSAIYYCTRGEIRYNWFAYWGQGTLVTVSS
VL: DIQMTQSPSSLSASVGDRVTITCKASQNVGNNIAWYQQKPGKAPKLLIYYASNRYTGVPSRFSGSGYGTDFTLTISSLQPEDFATYYCQRLYNSPFTFGGGTKVEIK
B2: ch28: rat-human chimeric anti-Notch3 antibody 28, rat variable regions fused with human IgG1 and human kappa (antibody, V domains shown)
VH: EVQLVESGGGLVQPGRSLTLSCVASGFTFRDYGMTWIRQAPGKGLTWVAYISSGSNYIYYAEAVKGRFTISRDNAKNTLYLQMTSLRSEDTALYFCTRRGPFVLDAWGQGASVTVSS
VL: DIQMTQSPSFLSASVGDRVTINCKASQSINRYLHWFQQKLGEAPKLLIYNANGLQTGIPSRFSGSGSGTDFTLTISSLQSEDVATYFCLQHNTWPDTFGAGTKLELK
B3: ch28-vc0101: ch28 conjugated to vc0101 linker-payload (conjugate)
VH: B2 VH
VL: B2 VL

What was measured:
HCC2429 (lung cancer) = assay: In vitro cytotoxicity (MTS), HCC2429; assay type: cell-based, human; settings: Table 13; four days; LP = lacked potency
Method: (§1) The effects of anti-Notch3 ADCs were assessed on 1) cell lines endogenously expressing Notch3 protein: HCC2429 (lung cancer), OVCAR3 (ovarian cancer) and MDA-MB-468 (breast cancer), 2) cell lines engineered to over-express full length human Notch3 protein: MDA-MB-468/hNotch3 and U2OS/hNotch3, and 3) a negative control cell line (SW900) using an MTS cellular viability indicator (Promega, Madison, Wis.). These cell lines were cultured with increasing concentrations of anti-Notch3 ADCs comprising rat-human chimeric anti-Notch3 antibodies, ch28 and ch75, and humanized anti-Notch3 antibodies, hu28 and hu75, conjugated to various linker-payload combinations of the present invention. As a specificity control for the anti-Notch3-ADCs, non-targeted control-ADCs (huNeg8.8-ADCs or ch2H6-ADCs) were also tested on the same cell lines. After four days, viability of each culture was assessed. IC50 values were calculated by logistic non-linear regression, model #203 with XL fit v4.2 (IDBS, Guildford, Surry, UK) and presented as ng Ab/mL. The drug antibody ratio (DAR) is also provided.
(§2) This process generated the anti-Notch3 cysteine mutant ADCs: hu28-(L443C)-vc0101 and hu28-(L443C/κK183C)-vc0101. The activity of the anti-Notch3 cysteine mutant ADCs were assessed on cell lines endogenously expressing Notch3 protein: HCC2429 (lung cancer) and OVCAR3 (ovarian cancer) using an MTS cellular viability indicator as described in previous Examples.

OVCAR3 (ovarian cancer) = assay: In vitro cytotoxicity (MTS), OVCAR3; assay type: cell-based, human; settings: Table 13; four days; LP = lacked potency
Method: as §1, §2

[1] = test system: MDA-MB-468 (breast cancer); assay: In vitro cytotoxicity (MTS), MDA-MB-468; assay type: cell-based, human; settings: Table 13; four days; LP = lacked potency
Method: as §1

N87 gastric xenografts = assay: N87 gastric xenograft model; assay type: in vivo, mouse; settings: 5 mg/kg iv Q4dx4; FIG. 16D, 16E
Method: Similar in vivo experiments were performed with the N87 gastric cancer cell line as described above. To generate xenografts, nude (Nu/Nu) female mice were implanted subcutaneously with 8×10^6 N87 cells in 50% Matrigel (BD Biosciences).
The N87 gastric model was also dosed intravenously Q4d×4 with PBS vehicle, rat-human chimeric anti-Notch3 ADCs and control huNeg-8.8 ADCs, at a dose of 5 mg/kg as provided in FIG. 16D.
The N87 gastric model was also dosed intravenously Q4d×4 with PBS vehicle and rat-human chimeric anti-Notch3 ADCs ch28-mc0131, ch75-mc0131, ch28-m(H2O)c-0131 and ch75-m(H2O)c-0131 at a dose of 5 mg/kg as provided in FIG. 16E.

U2OS/hNotch3 = U2OS/hNotch3 (Homo sapiens, UniProt Q9UM47); assay: In vitro cytotoxicity (MTS), U2OS/hNotch3; assay type: cell-based; design: U-2 OS cells stably over-expressing human full length Notch3 protein on cell surface; expressed in transfected cells; host or cells: U-2 OS (human osteosarcoma); settings: Table 13; four days; LP = lacked potency
Sequence of U2OS/hNotch3 (Q9UM47 40-2321): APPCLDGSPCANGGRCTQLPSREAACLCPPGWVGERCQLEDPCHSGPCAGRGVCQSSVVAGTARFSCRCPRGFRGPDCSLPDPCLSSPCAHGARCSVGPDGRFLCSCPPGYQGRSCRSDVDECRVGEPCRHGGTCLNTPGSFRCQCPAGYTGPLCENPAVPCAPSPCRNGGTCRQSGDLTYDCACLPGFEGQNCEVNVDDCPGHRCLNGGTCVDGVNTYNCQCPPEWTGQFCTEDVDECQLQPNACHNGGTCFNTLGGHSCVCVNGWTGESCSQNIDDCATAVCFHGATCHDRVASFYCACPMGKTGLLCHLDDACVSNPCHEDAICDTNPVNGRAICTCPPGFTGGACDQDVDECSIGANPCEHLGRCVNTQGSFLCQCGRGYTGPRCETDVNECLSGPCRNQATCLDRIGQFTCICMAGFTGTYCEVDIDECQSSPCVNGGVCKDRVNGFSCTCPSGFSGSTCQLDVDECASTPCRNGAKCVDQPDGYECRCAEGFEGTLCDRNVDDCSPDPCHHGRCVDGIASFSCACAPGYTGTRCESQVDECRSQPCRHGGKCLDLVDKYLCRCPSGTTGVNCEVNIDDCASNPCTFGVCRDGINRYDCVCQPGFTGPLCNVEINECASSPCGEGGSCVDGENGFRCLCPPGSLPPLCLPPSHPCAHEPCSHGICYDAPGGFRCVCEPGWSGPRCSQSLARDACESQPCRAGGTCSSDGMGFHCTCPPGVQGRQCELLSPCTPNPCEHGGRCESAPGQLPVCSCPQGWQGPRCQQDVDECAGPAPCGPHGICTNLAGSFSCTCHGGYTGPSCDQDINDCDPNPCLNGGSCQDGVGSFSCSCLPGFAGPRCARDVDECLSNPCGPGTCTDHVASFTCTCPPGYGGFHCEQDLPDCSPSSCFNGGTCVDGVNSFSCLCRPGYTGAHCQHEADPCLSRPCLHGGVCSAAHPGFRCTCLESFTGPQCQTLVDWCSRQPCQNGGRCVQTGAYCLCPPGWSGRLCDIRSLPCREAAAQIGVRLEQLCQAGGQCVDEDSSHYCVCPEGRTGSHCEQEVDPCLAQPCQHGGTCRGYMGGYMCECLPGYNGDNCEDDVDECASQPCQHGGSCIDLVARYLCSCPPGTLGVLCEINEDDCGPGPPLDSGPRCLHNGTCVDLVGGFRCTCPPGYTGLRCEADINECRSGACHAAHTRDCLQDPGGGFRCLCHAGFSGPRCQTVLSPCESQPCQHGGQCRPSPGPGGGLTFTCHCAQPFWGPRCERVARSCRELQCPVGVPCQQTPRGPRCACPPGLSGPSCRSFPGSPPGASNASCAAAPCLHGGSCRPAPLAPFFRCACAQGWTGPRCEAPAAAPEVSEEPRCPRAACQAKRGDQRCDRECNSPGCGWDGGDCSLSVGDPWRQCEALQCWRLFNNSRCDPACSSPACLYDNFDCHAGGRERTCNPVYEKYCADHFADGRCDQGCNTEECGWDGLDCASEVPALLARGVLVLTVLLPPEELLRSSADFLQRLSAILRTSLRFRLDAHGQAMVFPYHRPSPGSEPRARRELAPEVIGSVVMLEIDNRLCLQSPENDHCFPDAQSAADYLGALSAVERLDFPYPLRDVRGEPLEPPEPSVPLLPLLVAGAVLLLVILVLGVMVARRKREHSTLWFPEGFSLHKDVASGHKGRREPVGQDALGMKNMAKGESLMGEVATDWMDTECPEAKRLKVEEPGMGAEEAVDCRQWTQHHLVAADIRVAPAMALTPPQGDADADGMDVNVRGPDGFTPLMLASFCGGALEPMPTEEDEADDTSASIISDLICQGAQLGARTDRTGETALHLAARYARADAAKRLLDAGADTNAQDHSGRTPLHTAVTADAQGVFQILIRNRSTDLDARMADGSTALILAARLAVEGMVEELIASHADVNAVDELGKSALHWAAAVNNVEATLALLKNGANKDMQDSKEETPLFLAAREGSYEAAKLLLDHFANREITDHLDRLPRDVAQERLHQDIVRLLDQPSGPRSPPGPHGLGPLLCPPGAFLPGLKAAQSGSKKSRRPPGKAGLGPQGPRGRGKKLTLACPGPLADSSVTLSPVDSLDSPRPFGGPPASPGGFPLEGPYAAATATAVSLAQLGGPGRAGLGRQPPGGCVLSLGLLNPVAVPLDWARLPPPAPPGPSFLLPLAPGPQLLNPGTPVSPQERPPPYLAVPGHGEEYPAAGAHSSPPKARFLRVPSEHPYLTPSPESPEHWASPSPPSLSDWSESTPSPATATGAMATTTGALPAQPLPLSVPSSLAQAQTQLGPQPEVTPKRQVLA
Method: as §1

human Notch2 NRR-Fc = molecular target: T1, human Notch2 NRR-Fc; assay: Binding to Notch2 NRR-Fc; settings: N/B = non-binding
Text: (§3) Other members of the Notch receptor family play important roles in biological processes. For example, a Notch1 or Notch2 deficiency leads to embryonic death in mouse models. In contrast, a Notch4 deficiency results in no detectable phenotype in mouse models. The closest homologues of the Notch3 NRR region are Notch1 and Notch2 (˜50% homology), and Notch4 is a more distant homologue (˜30% homology). Cross-reactivity of anti-Notch3 antibodies to other members of the Notch family, especially Notch1 and 2, may lead to undesired effects in patients. Therefore, the potential cross-reactivity of r28 and hu28, along with r75 and hu75 to other Notch family members were assessed.
(§4) Expression constructs encoding human Notch1 and Notch2 NRR regions, fused with human IgG1 Fc fragments were stably introduced into CHO-PACE cells. Conditioned media from these cells expressing NRR-Fc fusions were collected. Human Notch2 NRR-Fc and human Notch1 NRR-Fc were purified by protein A affinity followed by size exclusion chromatography (SEC). Purified preparations were dialysed into TBS with 1 mM CaCl2 and analyzed on analytical SEC to be >99% in purity.

human Notch1 NRR-Fc = molecular target: T2, human Notch1 NRR-Fc; assay: Binding to Notch1 NRR-Fc; settings: N/B = non-binding
Text: as §3, §4

[2] = molecular target: T3, human Notch3 NRR recombinant protein; assay: Surface plasmon resonance (Biacore) kinetic analysis; assay type: binding; settings: antibody captured; 1:1 Langmuir model
Method: The kinetic constants of the anti-Notch3 NRR interactions were determined by surface plasmon resonance (Biacore® T100, Biacore Inc., Piscataway, N.J.). Flow cells of a CM5 chip were immobilized with approximately 10,000 response units (RU) of anti-human IgG-Fc (Biacore®) in 10 mM Glycine, pH 5.0 at 10 μl/min for 600 seconds. 10 μg/ml of anti-Notch3 antibodies ch28 and hu28, and ch75 and hu75 were diluted in TBS with 1 mM CaCl2 were captured at 10 μl/min. Association of four concentrations of human Notch3 NRR recombinant protein (from 3.7-100 nM) and a zero concentration (running buffer) at 100 μl/min were recorded for 3 minutes in TBS with 1 mM CaCl2. Dissociation of the complexes was measured for 10 minutes. The surface of the chip was regenerated by injecting 3M MgCl2 with 3 mM EGTA for 60 seconds at 10 μl/min. Curves obtained after subtraction of the reference and buffer signals were fitted to a 1:1 Langmuir binding model with Biacore® T100 Evaluation Software (Biacore®).

[3] = Thermal stability by differential scanning calorimetry (DSC); assay type: physicochemical; settings: 0.3 mg/ml in PBS
Method: There is a positive correlation between the thermal stability of a protein or protein domain with the overall stability of the protein or protein domain. A higher melting point of a protein or protein domain often provides improved manufacturability and longer shelf life. Differential scanning calorimetry (DSC) was used to assess the thermal stability of hu28 and hu75 versus ch28 and ch75, respectively. Protein samples were diluted in PBS to 0.3 mg/ml in a volume of 250 μl. The corresponding formulation buffer blank was used for the reference sample. Both samples were thoroughly degassed using a MicroCal ThermoVac Sample Degassing and Thermostat (Microcal, Inc., Northampton, Mass.) set to 8° C. Samples were dispensed into the appropriate cells of a MicroCal VP-DSC Capillary Cell MicroCalorimter (MicroCal, Inc., Northampton, Mass.). Samples were equilibrated for 4 minutes at 15° C. and then scanned up to 100° C. at a rate of 100° C. per hour. A filtering period of 20 seconds was selected. Raw data was baseline corrected and the protein concentration was normalized. Origin Software (OriginLab Corporation, Northampton, Mass.) was used to fit the data to an MN2-State Model with an appropriate number of transitions.

MDA-MB-468/hNotch3 = molecular target: T4, MDA-MB-468/hNotch3 (Homo sapiens, UniProt Q9UM47); assay: In vitro cytotoxicity (MTS), MDA-MB-468/hNotch3; assay type: cell-based; settings: Table 13; four days; LP = lacked potency
T4 construct: cell lines engineered to over-express full length human Notch3 protein: MDA-MB-468/hNotch3 and U2OS/hNotch3; expressed in transfected cells; host or cells: MDA-MB-468
T4 sequence (Q9UM47 40-2321): as above
Method: as §1

| Molecule | IC50 (ng Ab/mL) ± S.E.M., HCC2429 (HCC2429 (lung cancer)) | IC50 (ng Ab/mL) ± S.E.M., OVCAR3 (OVCAR3 (ovarian cancer)) | IC50 (ng Ab/mL) ± S.E.M., MDA-MB-468 [1] | growth of N87 gastric xenografts (N87 gastric xenografts) | IC50 (ng Ab/mL) ± S.E.M., U2OS/hNotch3 (U2OS/hNotch3) | Binding to Notch2 NRR-Fc (human Notch2 NRR-Fc) | Binding to Notch1 NRR-Fc (human Notch1 NRR-Fc) | ka [2] | kd [2] | Tm ± Standard Deviation, CH2 [3] | Tm ± Standard Deviation, CH3 [3] | Tm ± Standard Deviation, Fab [3] | IC50 (ng Ab/mL) ± S.E.M., MDA-MB-468/hNotch3 (MDA-MB-468/hNotch3) |
| --- | --- | --- | --- | --- | --- | --- | --- | --- | --- | --- | --- | --- | --- |
| B1 | 671 ± 406.5 ng Ab/mL | 289 ng Ab/mL | 8202 ± 2773.0 ng Ab/mL | inhibited growth of N87 gastric xenografts | 19 ng Ab/mL |  |  |  |  |  |  |  |  |
| B2 |  |  |  |  |  | N/B | N/B | 409000 M⁻¹ s⁻¹ | 0.000249 s⁻¹ | 70.20 ± 0.05 °C | 84.24 ± 0.07 °C | 73.22 ± 0.73 °C |  |
| B3 | 3230 ± 1116.5 ng Ab/mL | 635 ng Ab/mL | 5443 ± 2630.9 ng Ab/mL |  | 95 ± 18.2 ng Ab/mL |  |  |  |  |  |  |  | 4 ± 0.5 ng Ab/mL |
